The values that follow come from the NTF2 design screens of Basanta et al. (2020).

The data set can be described thus: protease stability score; higher = more stable; yeast display proteolysis, trypsin and chymotrypsin.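 Note: log10 excess protease needed over predicted unfolded state with 0 meaning unfolded.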
In the case of “DENLNTLMTQFMRAIQRGDEKRAKQLADPNAEIKYGDRSIHGMDQHADTIRKIRRKMRVDVTEVSHTTDGEQVNVEVTAIFNHNGEPKKRKFQFSATISNGRIKQVEVQDSQ”, the protease stability score is 0.654.
To “DDDKRANQFFRDMLRVFKNNNEKEAEKLFPPDANQNVGEERVHGREQFRKEFVDDARNVDHWEARIVDLDVKNGRIVIRFEFVKDVNGRKNKDVRTLTVVNHNGRLVIERVNSG” belongs 0.882; to “DEHEAEKLLKLLTENDPRQFQNEADKNVRVFYGDKEVHGREQFHTWVQRVRERVDTLEIKRVETRPGRLEVKFRVNVNGQTLEMVLVIVVHNGKIQDVKLHARDHDVMKRWKEAVS”, 0.82.
The sequence “DKEIKDLARQVLTAEKTGDPEQFKKLFDPNVHVEVGDKTVTGREEASREFKKSQQELRIDMKSVSVTVEGNSVDIEIHAHLKVNGRPIDMHFRIILTFHNGKVHHVQLQVSEDQLRKMSQ” returned a protease stability score of 0.668.
To “DEEEQMHQANQNLRDAFRTNDPDTWRTLVDENARVRIGDKHVSGREEVKELMEDIAREADHLELRVQSMTVRNGELHVHFTLRADVNGQKREIQVVVVLVVRNGRARISRVEQT” belongs 1.15.
As to “DPRKVKDAVRKVVEAMMNGDVEKIVKLYKPDGELYLGSQKVRGQEQVEKEAKKFYDKGARFQVKEQHVKGDNATVVFDMTANGQTVTFQFEIKVKDDTVDKYEVRFTEKADELRRKG”, the protease stability score was -0.136.
To “EDRDQAKHIIKEIMRAIQTGDRKHAMRQVDPNVRIHVGDKVLEGREEFMKWVKDLRDDVDHFHLRIHDMHVENGQLTADAEFVVDHNGQRRKQRMDVVFLVHGDKVRLLRLQEK” belongs 1.4.
To “DDKEARKFAKDYVDAMKTGDEKRIEEMVDPNVSFQIGDQTYHGREQLKQALRSRRHHADHVQVDHVEAQGDKIDIDVQFNINGRDDKVKIKIRVHNGRIKEVVIEKK” belongs 0.99.
In turn, “EEDVVEQLKDWYRAVNSGDEERLTQLMDPNAKAEVGDKRVHGMDEYARQQRTRNEKLRFQINSIEIRAKGNHVSVNVDANYHFDGQPRRDTWHIRMQFHNGRLKTLSVTMDPTLLREMEK” returned a protease stability score of 0.931.
Turning to “DEDLKQQFDELVEIKKNGDEDRLVEQADENVKAQVGDKDVHGMKEIAHNIRHTVERIRVEIKSMEVDAQGNRVHVENDFVENNNGKPHRKVVDMKFIFHNGTLKSYTERDDK”, the protease stability score was -0.608.
The value for “DERLADQVVELLHVMEDGDEKRVDQLIDKDVKFKVGDKDYHGDETARRRAKNLRDQMRIEYDLKDYRTNGDNAILNAEVRMNINGQPYSHHVKIVVRARNGKVKHLQMSFDEETQKKVDQ” was 0.909.
The value for “DEEKVAQKFAEEMNKVWEQGDPDRMAELADEDVRMKYGDKEIHGRDDVEDHLRTVFKEVDSASIDVKRVSNHNGRVDIKASITMRDNGSHSNTNIDIKAEVSGDKVKLKEQHHQ” was -0.067.
Consider “DQKKQQEVLEQWSKNDPRDLRKQADKDVRVQIGDTTYHGREDAQDALYTLAKRVDHFKYQHIETEGDHIRVDLVVNVNGREYQLTFEAQFHNGRLKTLEMQVRDEDQHKRLQEQLD”, for which the protease stability score is -0.22.
“DESDLSRQAKELIDNWETGNPDKMRKLMDENVTADVGDKRWHGRDEVVKWFKTLVDSIDHIEVREFKVSGNSVTFTAEANVNGKKATFQVVIEVHNGKIKDVKVNPDDLKQLEK” yielded a protease stability score of 1.58.
To “DNKERAEDWFRHMTEIWKQNDPDELQNNADPNVRVDVGDKQVQGRDKYKTQMETFKNRADHISIELKNIDVQGERIVVNFEATYDVNGRKEDKTAHILARVHNGHIVIKEVKNG” belongs -0.073; to “DHEARKLMKRFFSAINHGDPDQIRKNVDKDVKAQVGDKTVHGREEWVKWMTRRLDEIKMHYDVTTIDVQGDKVHAQAKVRYDVDGRPITDQVTFTARIENGKITSLSLRMDPENQQKIEK”, 1.15; to “DEKKIKEYVHELNRAFQNGDEDRLNQMMDKNVRAQYGDKEYHGRENAKKVMKDFRDQFDHLEIHSVNVRGDRVDIEAEAHNNGRTEHWIITIRLHNGHMTSIVIRKS”, -0.319.
With “DTEDNHKLREVIRTNNPQEIREMMDPNVKVRYGNKEIEGRDQAVKHEQDLQHRADRVKIEDMRVHGDKLVVVWSINIDGSEFRFSFEARIHNGKVKFAQIQFTDPDLERKFDDMLQ”, the protease stability score worked out at 0.324.
To “DEEVEDLYQKIKRAQETGDHKQLRDNFDEEVRIKVGDKTIHGMTRAAKKITREWRHINIDVKVEHVQISNGRLRVRYRFVENDNGKPKTTAANFSMEAHNGRVKHVHVQDDS” belongs 0.112; to “EEEDVETAKQFIEAEEKGDEDRLVELADPNARFNVGDKNLHGREHAAREMRKHQEEADLRLEDVRLDVHNGRVDIELVFTHRHNGQPTRQKVKLTFEQHNGQLTHVQNDETK”, 0.558; to “DEKKEEQWVRDVKKHAETGNWHDFWRQADPNVRFQVGDTTLRGREEAVKVAEDMRRQVDHQRVEHVDAHNGKVTVDAVLDINGRQQKVEYVVEMHNGRIKRINFSYS”, -0.142.
The value for “DEELHTIANEFNKALDRGDRKKLVDLADPNAQAVVGDQTLHGMEHVAHTIKKRQEEMRLDLKSVSVSVKGNNAILNFNALLHVNGKPVEISMRIILTVSNGKIQVIVEQFDPEQMRTARK” was -0.289.
“DDERVQEQAKDFLKVVKEGNEEDLTKLFDPNASARYGDKTYHGREKVATAVAELAKKVDHFRVEHVEASGNKLHIDAYFQVNGNRRRIRFFIEIRNGKINTVIITSG” had a protease stability score of 1.62.
The value for “DEDEVKEVLKRIKSNDWHTLAKQADENARAVVGDKTYHGRTQMKKWMDKVRKRVDHIEISKVKQEGDKAVVDLVFQVNGVKVHLVIYIHVHNGKVVDVQAKARNEEELHKLKKAVS” was 0.331; that for “DEDDLETLLKKIIDAMRNGDPKQMMRLVDENAKLVVGDKTVHGREEVSKWMKELRRQVDDNDYKDFHVQGDKARIDHFVNINGTNTERVIDIEVHNGRVKRLVYHEK” was 0.159.
To “DEEDLERMQDFMRAINKGDEDRLTKLVDENVHWVVGDKRVHGREQLRKEVDRRREKMSIKFDRVDAHADNGHAVVNIEYNVKHNGQPTSNFVRVQAEATNGKIKEVVVQEDK” belongs -0.279; to “DDEHANSMADQLQKAFETGDEDQIRRLMDKDVSINYGDKRIKGSRELAHWVATLRRQVDSIEYKSIHVKGDKVDIDVVVNVNGRNARFTLVARFSNGKFKELRVDPENMKRLKS”, 1.47; to “DEKETRKLLKDVAEAFENGNNEEIKKLLKDDVEVQYADKRVHGPDQVVEMVKKYQDLGAKVEYKKLDVRGDTVTVDVQADLGGRTAEFKVTYQAQGQKVDRFKVKYDETAKKLIKHG”, 0.22.
Turning to “DEEENKHLISLFERNNWRDMAEMADKDVKAQYGDSTIHGREQVHEVLTQLQKRADHLEIKDYNVDGNKVVVDQVINVNGVTIRAKVLMEVHNGRIKQMHVQATDNEEKKKLDKVLS”, the protease stability score is -0.466.
Regarding “DDEKREKILKTFVDLFMNGDEEDIQRMMDENARASVGDKTYHGQEQVNKALKEIRDQFDRVEVKHIHVSGDKFRINMVINVNGKHVHVEVEISVHNGRIHEISFDPEHLTKMRN”, the protease stability score is 0.444.
Turning to “DEKAQDILKEIANAIRTNNPSQLKNLLDPNAKVKIGDKEFHGMDQLQEDVQRKKEKMRVDFDVRRVEVQGETVHARARVVIHHNGKPATMTYSMIVHIKNGRVRELQVNISETDKEKQKS”, the protease stability score came out at 1.62.
To “DEEYNKKVQDIFNTNDPSQFKSLIDPNARMEVGDHVFHGRHNIVKHLKKFRDQVDHFEIKEIDVKGNKLSMEFVAVVNGKRVRATMSQQAHNGRMQEIRIKATSEEDKKILKEVTS” belongs -0.048.
To “DEEHIEEVQRRFISAFKDGDEDQMQRQMDPNVKLVIGDTTIHGRESAAKSLANIVRKVDHVDVESYEVRGNQASMIMRVEINGKDDRLDFQIEIHNGHIKRLEIQSS” belongs 0.692; to “DSEERKTVARELNKVLKENDEEKFKRLADENVKLHYGDKEFHGRERAEQVLREWKKRIDHLEVNHVNNTGDRIVIHATVNVNGVNVHLEFNARLDNGHVTSVRLQYRDEEDRKRLES”, 0.814.
The sequence “DDHEEASELIRDLNEAWKEGDPDRASKNFDPNARIEVGDRTFRGQEQVKRMADELKEKYDEFTVDIKRLSLHNGSITVNARVVYHNNGRRHDRTYVVILHKHNGRIKIKNMHEQ” showed a protease stability score of 0.331.
With “DERALRNWRRLETAVNTNNPDKVQKLMDKDVKYEVGDKTIRGRRHAAQSLVERVNKIHLDIKSVTATDSGDNVRIRLDAVRNHNGRPHRDVLNITVKADNGKIVSVKTTKDG”, the protease stability score stood at 0.001.
On to “DEEAQKAAERVWKAIERGNEEELHRLIDPDVRIKVGDKDYHGREHYVESVVEIMTTIRFTIHRMEIKVSGERVIIEYHYEFSVNGQPDTMRVIVYMVAHNGKVKNIHVKMSPEKRDRFRE”, for which the protease stability score turned out to be 1.05.
To “DDKTIKENLKVFNRGNPDDMKTLMDKDVRLEVGEKSVHGREQAQTWQDRYERQVDHRRVKSYSMNGNNVVADMVVQVNGREYEVRLEVHVHNGRIKVLRLEVRDEDDRRNLKRLLS” belongs 0.211; to “DEDDNRKMHKLMETGDFEKIAHHADPNAHAKYGDKTVTGKEELKSVFTKFNRAVDHVQVQDVRIRGDKVTLDAEVNVNGQTVQVTVSARAHNGQIKHFKIQARDEQIQRDIKDALE”, 0.845.
The value for “DEEAQKRAQTFFHILEHGDPKKLSKLFDKDAKFVVGEQRINGMQQYEQWFRDVYKKIRVTMKLVSVHVTGNKIDIKAKVEWHVNGRPLTFDLDIKINFHNGKMKEAVFHVDSDFLRKLKR” was 0.63.
Turning to “DEEEVNKALERIRQVLEDGNPDENMKLMDKDVRVEIGDKTWHGRDEAHKAMRELNENVDHFQFDRLHHEGDRAKIDVHLEDNGKKDRVTFEFKIENGRIQHARVQTS”, the protease stability score was -0.335.
Sequence “DEKQQARDLVKELRDALKHGNEKQVVKMADENAKLQVGDKKVHGRKDIDKWAKDLRDRVDHVRLEVRSIDVHNGRMKFTATFTETHNGRKKERTMTMRARIQGDKFKIQQINLS” came in with a protease stability score of 0.247.
On to “DREDNEQVKKILETNDFHRLAEQADKDAKAVVGEKRYHGREHVREALLRLQKQADHLEIDSMDTSGDKVVMRAKLKINGKTMDVTFDVVVHNGRLQHFEMSATTEDDERIQRTANS”, for which the protease stability score amounted to 0.743.
To “EEHVLTRFNSNMSNNNFNHIRDMADENAKMRVGDQEYHGRDNIHRLLEELKTQADHIQVRDYNHRGEHVHVDVEMVINGQKLVARWHAEIKNGRIKEMVLQFTNEEQEKTVRKALR” belongs 0.302.
“DEERAKQLMEKAFKMIRNGNEEVVRKMLKPNGRYEYIDKKFEGEEAAKFVVQLVQKVGAEDKVKRKEVKGDTAKMDFDYHKGDKTVRTTAEVIYKGDKMEQARVELTDEVKKIVHQG” gave a protease stability score of 0.046.
The sequence “DDEARNLVSEWLKAVETGDPDRVSQNMDPNASYHIGEWNVTGRETVNKLLDDVKTRLRVQFNIQHLDANGDTVDLRAMVLYEHNGKPDTKVYHFKFQQHNGKLVDVRATEDG” returned a protease stability score of 0.736.
In turn, “DEEALKKMVDTLLKYVEQGNIKDIQQILKENVEFKLGDTEYKGVEHAKRDVKKLKDAGVEVHVKKTEVEGDTAHVETVWHAGDYEMHVTVQYVVRGDKVEKVEVRWSEEAKKALKVG” showed a protease stability score of 0.24.
